The test concerns the target T1, FtsY NG domain (SRP receptor FtsY, residues 196-498) (E. coli, UniProt P10121 196-497).
T1 sequence (looked up): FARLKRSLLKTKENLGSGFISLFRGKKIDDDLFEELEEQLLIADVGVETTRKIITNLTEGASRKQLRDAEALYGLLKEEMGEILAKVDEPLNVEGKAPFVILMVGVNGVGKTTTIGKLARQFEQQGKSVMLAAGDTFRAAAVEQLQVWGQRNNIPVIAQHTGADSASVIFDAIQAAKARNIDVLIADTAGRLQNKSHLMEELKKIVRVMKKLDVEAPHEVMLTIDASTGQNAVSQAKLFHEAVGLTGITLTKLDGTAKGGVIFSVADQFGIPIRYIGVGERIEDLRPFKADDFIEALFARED
As to the kind of experiment: SEC. For orientation: Size exclusion chromatography separates by hydrodynamic size, large species first.

B1: Ffh NG domain (signal recognition particle protein Ffh, residues 1-298) (domain or fragment, E. coli, UniProt P0AGD7 1-298, looked up)
chain: MFDNLTDRLSRTLRNISGRGRLTEDNVKDTLREVRMALLEADVALPVVREFINRVKEKAVGHEVNKSLTPGQEFVKIVRNELVAAMGEENQTLNLAAQPPAVVLMAGLQGAGKTTSVGKLGKFLREKHKKKVLVVSADVYRPAAIKQLETLAEQVGVDFFPSDVGQKPVDIVNAALKEAKLKFYDVLLVDTAGRLHVDEAMMDEIKQVHASINPVETLFVVDAMTGQDAANTAKAFNEALPLTGVVLTKVDGDARGGAALSIRHITGKPIKFLGVGEKTEALEPFHPDRIASRILGMG
For B1, the binding result is reported as “binds”.

For the origin of these results see publication PMC3910249 (Molecular cell, 2013).
